Results as given in patent publication US12383572B2, “Administration of an anti-activin-a compound to a subject” (AMGEN INC., priority 2013, dated 2025).

Key:
TOV-21G xenografts = experiment: TOV-21G xenograft, sActRIIB and 5-FU chemotherapy combination; format: in vivo, human; settings: nude mice; sActRIIB 10 mg/kg SC 1x/week, 5-FU 50 mg/kg IP 3 cycles, alone or together
Experimental: TOV-21G xenograft. 5×10^6 TOV-21G ovarian cancer cells were implanted subcutaneously into individual female athymic nu/nu mice (Harlan). Treatment was initiated at day 12 after tumor implantation, when the average tumor volume reached approximately 150 mm^3. The mice received PBS, sActRIIB (30 mg/kg, SC, 1×/week) or activin-A antibody (30 mg/kg, SC, 2×/week). In a separate chemotherapy combination experiment, the mice were treated with PBS, sActRIIB (10 mg/kg, SC, 1×/week), 5-FU (50 mg/kg, IP, 3 cycles, 4 daily injections per cycle) or sActRIIB and 5-FU combination at the same doses above. For all xenograft experiments, the tumor sizes were measured longitudinally by using an electronic caliper. Immediately prior to the 1st dose, the tumor-bearing mice were randomized to ensure even distribution in tumor sizes across different groups. Tumor volumes (mm^3) were calculated as tumor length (mm)×tumor width (mm)×tumor height (mm). Tumor weights were determined by necropsy.

[1] = sActRIIB and doxorubicin in TOV-21G tumor-bearing nude mice: body weight and muscle mass; format: in vivo, mouse
Experimental: The objective of the present study was to examine the effect of pharmacological administration of sActRIIB, doxorubicin (dox), and sActRIIB plus doxorubicin, respectively, on body weight, tumor growth and muscle mass in nude mice implanted with TOV-21G ovarian xenograft tumors. Eight-week-old female Athymic nude mice were SC injected with 0.2 mL of 5×10^6 TOV-21G cells into the left site of the lower flank of the mice. After 10 days of tumor implantation, the mice were divided into 4 groups by body weight and tumor size and then treated with vehicle, sActRIIB, doxorubicin or the combination of sActRIIB and doxorubicin. In addition, a group of non-tumor bearing mice was used as normal control and received PBS.
Mice were weighed weekly. Body weight data were recorded longitudinally. Tumor size was measured longitudinally by using an electronic caliper. The following formula was used to calculate actual tumor volume (Tomayko M and Reynolds C, 1989): (Volume of a rectangular solid tumor: Tumor volume (mm^3)=length (mm)×width (mm)×height (mm) of tumor). At the end of the study, mice in all groups were subjected to terminal necropsy and lean carcass weight (excluding skin, adipose tissue, internal organs, and head) was determined by using standard anatomical dissection procedures. […] All results were expressed as the mean±SEM (standard error of the mean). […]

[2] = test system: TOV-21G, BAEC, MRC-5, CCD-Lu, U937 and THP-1 cultures; experiment: Real-time RT-PCR of VEGF, Ang-1 and βA in cell cultures treated with recombinant activin-A; format: cell-based; settings: sActRIIB added with recombinant activin-A
Text: ID NO: 291), [NT] ID NO: 292), and TaqMan probe [NT] ID NO: 293).

[3] = test system: testicular tumors in inh-KO mice; experiment: Testicular tumor mass by necropsy in male inh-KO mice; format: in vivo, mouse; settings: 8-week-old male inh-KO mice, single injection 30 mg/kg SC, necropsy 14 days after
Experimental: Inh-KO mice. 12-week-old female and 8-week-old male inh-KO mice with fully established ovarian or testicular tumors received a single injection of PBS or sActRIIB (30 mg/kg, SC). As a control, age-matched wild-type littermates received a single injection of PBS. Ovarian and testicular organ weights were determined by necropsy 14 days after the injection.

[4] = test system: G361 human melanoma xenografts; experiment: G361 melanoma xenograft growth in nude mice; format: in vivo; settings: sActRIIB 20 mg/kg SC 1x/week from day 14
Experimental: G361 and 5637 xenografts. 5×10^6 G361 melanoma cells and 5637 bladder carcinoma cells, respectively, were inoculated SC into individual athymic nu/nu mice (Harlan Inc). Treatment was initiated 4 days after 5637 implantation and 14 days after G361 implantation, when the tumor volumes reached 130 mm^3−150 mm^3. 5637-implanted mice received PBS or activin-A antibody (10 mg/kg, SC, 2×/week). G361-implanted mice received PBS or sActRIIB (20 mg/kg, SC, 1×/week).
For all xenograft experiments, the tumor sizes were measured longitudinally by using an electronic caliper. Immediately prior to the 1st dose, the tumor-bearing mice were randomized to ensure even distribution in tumor sizes across different groups. Tumor volumes (mm^3) were calculated as tumor length (mm)×tumor width (mm)×tumor height (mm). Tumor weights were determined by necropsy.

[5] = test system: VEGF, Ang-1, osteopontin, CD31 in TOV-21G tumors; experiment: Immunostaining of angiogenesis factors and CD31 in TOV-21G xenograft tumor sections; format: in vivo, human; settings: treated vs untreated sections
Experimental: TOV-21G xenograft. 5×10^6 TOV-21G ovarian cancer cells were implanted subcutaneously into individual female athymic nu/nu mice (Harlan). Treatment was initiated at day 12 after tumor implantation, when the average tumor volume reached approximately 150 mm^3. The mice received PBS, sActRIIB (30 mg/kg, SC, 1×/week) or activin-A antibody (30 mg/kg, SC, 2×/week). In a separate chemotherapy combination experiment, the mice were treated with PBS, sActRIIB (10 mg/kg, SC, 1×/week), 5-FU (50 mg/kg, IP, 3 cycles, 4 daily injections per cycle) or sActRIIB and 5-FU combination at the same doses above. Zinc-formalin fixed paraffin tumor tissue sections of 4 μm in thickness were prepared. The sections were subjected to antigen retrieval by microwave 3 min in Unmask solution (Vector H-3300) followed by incubation in 10 μg/ml Proteinase-K for 20 min and in 1% H2O2 in dH2O for 10 min at room temperature. The sections were further incubated in 0.1% Tween-20 in PBS for 3 min to permeabilize the cell membrane and in goat serum for 30 min to block non-specific binding. The sections were then incubated at room temperature with specific primary antibody for 3 hours followed by incubation in biotinylated or fluorescently labeled secondary antibody. […] The immunostained tissue sections were analyzed and photographed using a Nikon Eclipse 90i microscope equipped with DS-Ril camera. […]

B1: sActRIIB: extracellular domain of human activin type-2B receptor fused to IgG2 Fc; full length SEQ ID NO: 21 (Table 9) (protein, listed as Homo sapiens)
chain: ETRWCIYYNANWELERTNQSGLERCEGEQDKRLHCYASWRNSSGTIELVKKGCWLDDFNCYDRQECVATEENPQVYFCCCEGNFCNERFTHLPEAGGPEVTYEPPPTAPTGGGGSVECPPCPAPPVAGPSVFLFPPKPKDTLMISRTPEVTCVVVDVSHEDPEVQFNWYVDGVEVHNAKTKPREEQFNSTFRVVSVLTVVHQDWLNGKEYKCKVSNKGLPAPIEKTISKTKGQPREPQVYTLPPSREEMTKNQVSLTCLVKGFYPSDIAVEWESNGQPENNYKTTPPMLDSDGSFFLYSKLTVDKSRWQQGNVFSCSVMHEALHNHYTQKSLSLSPGK
rate of tumor growth (TOV-21G xenografts): decreased the rate of tumor growth significantly | body weight ([1]; TOV-21G tumor-bearing nude mice, sActRIIB 10 mg/kg SC 1x/week, DOX 2 mg/kg IP 1x/week): effectively prevented the weight loss | lean carcass weight and calf muscle mass ([1]; TOV-21G-implanted nude mice, necropsy at end of 4-week experiment): prevented the loss in lean carcass weight and calf muscle mass | induction of VEGF and Ang-1 mRNA by recombinant activin-A [2]: prevented this induction of VEGF and Ang-1 | induction of βA expression by recombinant activin-A [2]: blocked completely | testicular tumor mass [3]: dramatic regression of testicular tumor masses to the WT control levels | growth rate and size of G361 xenografts [4]: significantly decreased the growth rates and sizes | CD31 immunostaining (newly formed microvessels) [5]: lack of such new microvessels | VEGF and Ang-1 immunostaining in tumor sections [5]: virtually none in the sActRIIB-treated sections
